Assay results: paper PMC11405040, “PRMT5-mediated FUBP1 methylation accelerates prostate cancer progression” (The Journal of Clinical Investigation, 2024)

Target: T1, FLAG-PRMT5 (UniProt O14744 1-637)
T1 construct: PRMT5, wild type; Enriched from HEK293T lysate by one FLAG step; cellular partners such as MEP50 may have come along (surmise); also called FLAG-PRMT5^WT; FLAG-tagged PRMT5; source: HEK293T, transfected, immunopurified on FLAG beads and eluted with FLAG peptide
Test: pull-down; His-FUBP1 (from E. coli) and FLAG-PRMT5 (enriched from HEK293T lysate) in vitro, with the PUBLISH peptide as competitor
Conditions: both partners purified

T1 sequence (O14744 whole entry): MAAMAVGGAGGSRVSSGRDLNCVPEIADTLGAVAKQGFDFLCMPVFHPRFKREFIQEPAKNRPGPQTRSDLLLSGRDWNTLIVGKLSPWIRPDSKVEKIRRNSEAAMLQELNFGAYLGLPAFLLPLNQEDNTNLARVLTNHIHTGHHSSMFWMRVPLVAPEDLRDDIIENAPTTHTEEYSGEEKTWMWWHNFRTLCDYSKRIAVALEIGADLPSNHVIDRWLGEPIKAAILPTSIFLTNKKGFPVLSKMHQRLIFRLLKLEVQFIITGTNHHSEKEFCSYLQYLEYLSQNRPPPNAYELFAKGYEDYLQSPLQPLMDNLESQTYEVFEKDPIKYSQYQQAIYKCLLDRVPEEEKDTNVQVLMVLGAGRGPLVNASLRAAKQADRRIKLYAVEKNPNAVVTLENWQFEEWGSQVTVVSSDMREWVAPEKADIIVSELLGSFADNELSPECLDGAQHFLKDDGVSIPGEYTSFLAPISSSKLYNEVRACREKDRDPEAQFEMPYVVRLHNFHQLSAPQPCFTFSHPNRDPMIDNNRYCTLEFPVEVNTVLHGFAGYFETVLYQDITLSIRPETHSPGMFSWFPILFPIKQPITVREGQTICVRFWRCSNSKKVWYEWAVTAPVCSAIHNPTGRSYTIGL

binding result: binds
B1: PRMT5-mediated FUBP1 methylation abolishing (PUBLISH) peptide (peptide, UniProt Q96AE4 353-367, looked up)
peptide: GPGPGGRGRGRGQGN
notes: FUBP1 amino acids 353-367, with R359/R361/R363; For cells it was delivered as BPAE/peptide nanocomplexes; also called PUBLISH^WT; source: synthetic peptide
